According to the nanobody polyreactivity screen of Harvey et al. (2022):

test: yeast display, Sf9 membrane polyspecificity reagent, FACS + sequencing; frameworks hold sequencing errors
How it was run: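 A synthetic nanobody library was expressed on Saccharomyces cerevisiae BJ5465 by galactose induction for 36–48 hours. The library was stained for 1 hour at 4 °C with 10% biotinylated, detergent-solubilized Sf9 membrane reagent and enriched with streptavidin microbeads before FACS. Low and high (top ~1%) gates were set on anti-HA fluorescence for expression and streptavidin fluorescence for reagent binding, and each polyreactivity label reflects the gate of origin.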

Row | Sequence | polyreactivity (PSR sort gate)
1 | QVQLVESGGGLVQAGGSLRLSCAASGSNFGPNAMGWYRQAPGKERELVAVISFRGGNTYYADSVKGRFTISRDNAKNTVYLQMNSLKPEDTAVYYCAARGYRYGYGYWGQGTQVTVSS | high polyreactivity
2 | QVQLVESGGGLVQAGGSLRLSCAASGSNFGWYAMGWYRQAPGKERELVAAITFSSVSTYYADSEKGRFTISRDNAKNTVYLQMNSLKPEDTAVYYCAAVVYYTFDYWGLGTQVTVSS | low polyreactivity
3 | QVQLVESGGGLVQAGGSLRLSCAASGSNFLCYTMGWYRQAPGKERELVAAISRTGGSTYYADSVKGRFTISRDNAKNTVYLQRNSLKPEDTAVYYCAASLYSITRARYDYWGQGTQVTVSS | high polyreactivity
4 | QVQLVESGGGLVQAGGSLRLSCAASGSNFLYYAIGWYRQAPGKERELVDGIRRGGRTNYADSVKGRFTISRDNAKNTVYLQMNSLKPEDTAVYYCAKGGYWGQGTQVTVSS | high polyreactivity
5 | QVQLVESGGGLVQAGGSLRLSCAASGSNFNYYTMGWYRQAPGKERELVAAISYRGGRTYYADSVKGRFTISRDTSKNTVYLQMNSLKPEDTAVYYCNAVTRIYEVDYWGQGTQVTVSS | high polyreactivity
6 | QVQLVESGGGLVQAGGSLRLSCAASGSNFQFNAMGWYRQAPGKEREFVAAITSSAGRTYYADSVKGRFTISRDNAKNTVYLQMNSLKPEDSAVYYCGDTFYRRYVDLGYWGQGTQVTVSS | high polyreactivity
7 | QVQLVESGGGLVQAGGSLRLSCAASGSNFRSNAMGWYRQAPGKERELVAAISRRGGSTYYADSVKGRFRISRDIAKNTVYLQMNSLKPEDTAVYYCAAPTIVSGHDSWGQGTQVTVSS | high polyreactivity
8 | QVQLVESGGGLVQAGGSLRLSCAASGSNFRSYAMGWYIQAPGKERELVAAITWGGNTYYADSVKGRFTISRDNAKNTVYLQMNSLKPEDTAVYYCAAKSYYTRRSKYDYWGQGTQVTVSS | high polyreactivity
9 | QVQLVESGGGLVQAGGSLRLSCAASGSNFRVYAMGWDRQAPGKERELVAAISSSGGITYYADSVKGRFTISRDNAKNTVYLQMNSLKPEDTAVYYCAKGTVIHVLYDYWGQGTQVTVSS | low polyreactivity
10 | QVQLVESGGGLVQAGGSLRLSCAASGSNFSRNTMGWYRQAPWKERELVAGISSSGSRTYYADSVKGRFTISRDNAKNTVYLLMNSLKPEDTAVYYCAAEHQRSRGRRYYIGYDYWGQGTQVTVSS | low polyreactivity
11 | QVQLVESGGGLVQAGGSLRLSCAASGSNFTAYAMGWYRQAPGKERELVAAIDDSGDSTYYADSVKGRFTISRDNSKNTVYLQMNSLKPEDTAVYYCKAEYRVNKEYDYWGQGTQVTVSS | low polyreactivity
12 | QVQLVESGGGLVQAGGSLRLSCAASGSNFTAYAMGWYRQAPGKERELVAAITKSSVTYYADSVKGRFTISRDNAKNTVYLQMNSVKPEDTAVYYCAGYSPRPSDLYSPIAYYYWGQGTLVTVSS | low polyreactivity
13 | QVQLVESGGGLVQAGGSLRLSCAASGSNFTGYGMGWYRQAPGKETELVAAITWSGGSTYYADSVKGRFTISRDNAKNTVYLQMNSLKPEDTAVYYCATPGIYYEMDYWGQGTQVTVSS | low polyreactivity
14 | QVQLVESGGGLVQAGGSLRLSCAASGSNFTSNGMGWYRQAPGKERELVAAITRRGGRTYYADSVKGRFTISRDNAKNTVYLQMNSLKPEDTAVYYCAAKSTSLYDYWGQGTQVTVSS | low polyreactivity
15 | QVQLVESGGGLVQAGGSLRLSCAASGSNFTVYDMGWYRQAPGKERELVAAISFSGGSTYYADSVKGRFTISRDTAKNTVYLQMNSLKPVDTAVYYCAADTYTTPYEYWGQGTQVTVSS | low polyreactivity
16 | QVQLVESGGGLVQAGGSLRLSCAASGSNFVKYVMGWSRQAPGKERELVAAITWRGGRTYYADSVKGRFTISRDNEKNTVYLQMNSLKPEDTAVYYCAAYDQSLYGRRYDYWGQGTQVTVST | high polyreactivity
17 | QVQLVESGGGLVQAGGSLRLSCAASGSNFYRNAMGWYRQAPGKERELVAGIRWTGTRTYYADSVKGRFTISRDNAKNTVYLQMNSLKPEDTAVYYCNAVYSLSNAVDGDYWGQVTQVTVSS | high polyreactivity
18 | QVQLVESGGGLVQAGGSLRLSCAASGSNIGTYAMGWYRQAPGKERELVAAISSSGGRTYYADSVKGRFTISRDNAKNTVYLQMNSLKPEDTAVYYCATKRVLTGYDSWGQGTQVTVSS | high polyreactivity
19 | QVQLVESGGGLVQAGGSLRLSCAASGSNITPNAMGWYRQAPGKERELVAAISSSSDRTYYADSVKGRFTISRDNAKNTVYLQMNSLKPEDTAVYYCAAYAQKRYYWGQGTQVTVSS | high polyreactivity
20 | QVQLVESGGGLVQAGGSLRLSCAASGSNSDPYAMGWYRQAPGKEREFVAAITFSVSSTYYADSVKGRFTISRDNAKNTVYLQMNSLKPEDTAVYYCAARRPLYPERDYWGQGTQVTVSS | high polyreactivity
21 | QVQLVESGGGLVQAGGSLRLSCAASGSNYGFYAMGWYRKAPGKERELVAVISSDGSTNYADSVKGRFTISRDNAKNTVYLQMNSLKPEDTAVYYCAADWSITYGDGGYWGQGTQVTVSS | low polyreactivity

Row | Sequence | polyreactivity (PSR sort gate)
22 | QVQLVESGGGLVQAGGSLRLSCAASGSNYSGYAMGWARQAPGKERELVAAITKSGGRTYYADSVKGRFTISRDNAKNTVYLQMNSLKPEDTAVYYCAKAYPGTYREYDYWGQGTQVTVSS | high polyreactivity
23 | QVQLVESGGGLVQAGGSLRLSCAASGSPFHRYVMGWYRQAPGKERELVAVINSTGGSTYYADSVKGRFTISRDHAKNTVDLQMNSLKPEDTAVYYCNAVRDWGPSQVYDGMDYWGQGTQVTVSS | low polyreactivity
24 | QVQLVESGGGLVQAGGSLRLSCAASGSPFSRNAMGWYRPAPGKEREMVAAISYSGGSTYYADSVKGRFTISRDNAKNTVYLQLNSLKPEDTAVYYCNTYIVNYSGQEMVYWGQGTQVTVSS | high polyreactivity
25 | QVQLVESGGGLVQAGGSLRLSCAASGSPSQPYAMGWYRQAPGKVRELVASITNGGITYYADSVKGRFPISRDNANNTVELQMNSLKPEDTAVYYCARTGPSAYWEFDYWGQGTQVTVSS | low polyreactivity
26 | QVQLVESGGGLVQAGGSLRLSCAASGSPSYFNVKGWYRQAPGKERQLVAAISWSGGSTYADSVKGRFTISRDNAKNTVYLQMNSLKREDTAFYYCNKDYGYVQLRFYCPGYYWGQGTQVTVSS | low polyreactivity
27 | QVQLVESGGGLVQAGGSLRLSCAASGSSFEPNAMGWYRQAPGKERELVASITSSGGNTYYADSVKGRFTISRDNAKNTVYLQMNSLKPEDTAVYSCAAGSGYAFGGYYLWGFGYWGQGTQVTVSS | low polyreactivity
28 | QVQLVESGGGLVQAGGSLRLSCAASGSSFRRYAMGWSRQAPGKERELVASITASGGSTYYADSVKGRFTISRDNAKNTVYLQMNSLKAEDTAVYYCNKDTIKSYYRRYDSWGQGTQVTVSS | low polyreactivity
29 | QVQLVESGGGLVQAGGSLRLSCAASGSSFTWYAMGWYRQAPGKERELVAAITRGGSTYADSVKGRFTISRDNAKNTVYLQMNSLKPEDTAVYYCNAVYGVYDFNYWGQGTQVTVSS | low polyreactivity
30 | QVQLVESGGGLVQAGGSLRLSCAASGSTAYVMGWYRQAPGKETELVAAISKSGGSTYYADSVKGRFTISRDNAKNTVYLQMNSLKPEDTAVYYCSALYPTTTAYRYGYWGQGTQVTVSS | high polyreactivity
31 | QVQLVESGGGLVQAGGSLRLSCAASGSTCGTNAMGWYRQAPGKERELVAAITWSGGRTYYADSVKGRFTISRDNAKNTVYLQMISLKPEDTAVYYCNAGYSYRRRNGYGYDYWGQGTQVTVSS | high polyreactivity
32 | QVQLVESGGGLVQAGGSLRLSCAASGSTFAANTMGWYRQAPGKERELVAAITVRGGSTYYADSVKGRFTISRDNAKNTVYLLMQSLKPEDTAVYYCAAERPPYGYLVVGYVSTQYYYWGQGTQVTVSS | low polyreactivity
33 | QVQLVESGGGLVQAGGSLRLSCAASGSTFAFNAMGWYRQAPGQERELVAGITWSSGSTYYADSVKGRFTISRDNAKNTVYLQMNSLKPEDTAVYYCNVQSVHFRLWKDNYWGQGTQVTVSS | high polyreactivity
34 | QVQLVESGGGLVQAGGSLRLSCAASGSTFAFYAMGWYRQAPGKERELVAAITWRVGSTYYADSVKGRFTISRDNAKNTVYLQMNSLKPEDTAVYYCAVDIPFYDSDYWGQGTQVTVSS | low polyreactivity
35 | QVQLVESGGGLVQAGGSLRLSCAASGSTFAGNAMGWYRQAPGKERELFAAITFSGGRTDYADSVKGRFTISRDNAKNTVYLQMNSLKPEDTAVYYCAAPADVTVHYLNYYWGQGTQVTVSS | low polyreactivity
36 | QVQLVESGGGLVQAGGSLRLSCAASGSTFAGNPMGWYRQATGKERELVAAIDSSTGSTYYADSVKGRFTISRDNAMNTVYLQMNSLKPEDTAVYYCNKTSFLVKLDYWGQGTQVTVSS | low polyreactivity
37 | QVQLVESGGGLVQAGGSLRLSCAASGSTFAGYAMGWYRQAPGKERELVAAIRSGGSTYYADSVKGRFTISRDNAKNTVYLQMNSLKPEDTAVYYCNAVYAFNGYDYWGQVTQVTVSS | low polyreactivity
38 | QVQLVESGGGLVQAGGSLRLSCAASGSTFAGYAMGWYRQAPGKERELVAAISWNGGSTYYADSVKGRFTISRDNAKNTVYLQMNSLKPEDTAVYYCAKARYYSWKGKGDYWGQGTQVTVSS | high polyreactivity
39 | QVQLVESGGGLVQAGGSLRLSCAASGSTFAIYAMGWYRQAPGKERELVAAISKSGGSTYYADSVKGRFTISRDNAKNTVYLQMNILKPEDTAVYYCARRQYAFGPYGFYYWGQGTQVTVSS | high polyreactivity
40 | QVQLVESGGGLVQAGGSLRLSCAASGSTFAKNAMGWYRQAPGKERELVAAITYSGGSTYYADSVKGRFTISRDYAKNTVYLEMYSLKPEYTAVYYCAADVWWSYFRYDYWGQGTQVTVSW | low polyreactivity
41 | QVQLVESGGGLVQAGGSLRLSCAASGSTFALNAMGWYRQAPGKERELVAAITTGGHTYYADSVKGRFTISRDNAKNTDYLQMNSLKPEDTAVYYCATVFYFDYYYHYDYWGQGTQVTVSS | low polyreactivity
